Test results reported in patent US12060424 (AMUNIX PHARMACEUTICALS, dated 2024).

Key:
[1] = molecular target: T1, Fc-tagged EpCAM (R&D Systems, cat #960-EP-050), human, coupled to SPR chip (human, UniProt P16422 24-265); assay: SPR (Biacore 3000), Fc-tagged EpCAM coupled to chip, ProTIA as analyte at 5-6 concentrations
T1 construct: Bought reagent; also called human EpCAM; EpCAM chip; not shown: Fc tag of the bought reagent
T1 sequence (looked up): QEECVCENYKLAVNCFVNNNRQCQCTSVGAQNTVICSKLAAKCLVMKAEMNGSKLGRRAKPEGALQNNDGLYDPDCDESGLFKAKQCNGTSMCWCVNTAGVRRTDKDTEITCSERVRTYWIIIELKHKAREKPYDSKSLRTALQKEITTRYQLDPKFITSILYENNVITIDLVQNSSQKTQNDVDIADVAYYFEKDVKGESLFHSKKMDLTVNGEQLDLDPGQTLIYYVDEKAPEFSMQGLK

[2] = molecular target: human CD3 on cells (CD3+ Jurkat cells; purified human CD3 positive T cells) (human, UniProt P07766 23-207); assay: cell-based or functional assay
[3] = molecular target: recombinant human CD3 epsilon & delta (rhCD3ε & δ), Creative BioMart cat #CD3E&CD3D-219H (human) (UniProt P07766); assay: sandwich ELISA: rhCD3ε & δ coated, peroxidase-conjugated protein L detection
[4] = molecular target: T2, recombinant human EpCAM (rhEpCAM), coated on ELISA plate (human, UniProt P16422 24-265); assay: sandwich ELISA: rhEpCAM coated, peroxidase-conjugated protein L detection
T2 construct: Bought reagent
T2 sequence (looked up): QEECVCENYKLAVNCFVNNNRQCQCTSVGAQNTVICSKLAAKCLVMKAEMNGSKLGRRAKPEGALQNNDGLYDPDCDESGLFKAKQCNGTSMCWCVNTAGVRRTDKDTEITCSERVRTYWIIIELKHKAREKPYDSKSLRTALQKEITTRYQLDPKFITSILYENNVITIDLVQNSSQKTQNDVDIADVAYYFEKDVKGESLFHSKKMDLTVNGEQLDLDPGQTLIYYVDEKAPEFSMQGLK

[5] = molecular target: recombinant human CD3 epsilon & delta (rhCD3ε & δ), Creative BioMart cat #CD3E&CD3D-219H (human) (UniProt P07766); assay: SPR (Biacore 3000), His-tagged CD3εδ coupled to chip, ProTIA as analyte at 5-6 concentrations
[6] = molecular target: recombinant human CD3 epsilon & delta (rhCD3ε & δ), Creative BioMart cat #CD3E&CD3D-219H (human) (UniProt P07766); assay: sandwich ELISA: rhCD3ε & δ coated, biotinylated anti-XTEN antibody detection
[7] = molecular target: T3, human EpCAM expressed on cells (CHO cells stably transfected with human EpCAM); EpCAM-positive human tumor … (human, UniProt P16422 24-314); assay: cell-based or functional assay
T3 sequence (looked up): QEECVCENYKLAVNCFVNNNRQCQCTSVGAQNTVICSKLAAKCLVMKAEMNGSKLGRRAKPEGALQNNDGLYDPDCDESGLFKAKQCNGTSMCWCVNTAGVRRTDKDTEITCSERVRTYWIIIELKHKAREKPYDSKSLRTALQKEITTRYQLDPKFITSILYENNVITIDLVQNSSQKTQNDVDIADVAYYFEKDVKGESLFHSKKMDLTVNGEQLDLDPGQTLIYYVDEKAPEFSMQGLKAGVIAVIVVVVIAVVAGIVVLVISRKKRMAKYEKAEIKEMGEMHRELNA

recombinant human CD3 epsilon & delta (rhCD3ε & δ), Creative BioMart cat #CD3E&CD3D-219H (human), sequence (P07766 23-126, stated change not applied, chain 1 of 2): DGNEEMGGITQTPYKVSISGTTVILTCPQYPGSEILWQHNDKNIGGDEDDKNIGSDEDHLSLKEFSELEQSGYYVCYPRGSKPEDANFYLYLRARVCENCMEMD
recombinant human CD3 epsilon & delta (rhCD3ε & δ), Creative BioMart cat #CD3E&CD3D-219H (human), sequence (P04234 22-105, stated change not applied, chain 2 of 2, further chain): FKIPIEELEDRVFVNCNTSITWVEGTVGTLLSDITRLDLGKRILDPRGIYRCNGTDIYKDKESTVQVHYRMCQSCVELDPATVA
human CD3 on cells (CD3+ Jurkat cells; purified human CD3 positive T cells), sequence (P07766 23-207): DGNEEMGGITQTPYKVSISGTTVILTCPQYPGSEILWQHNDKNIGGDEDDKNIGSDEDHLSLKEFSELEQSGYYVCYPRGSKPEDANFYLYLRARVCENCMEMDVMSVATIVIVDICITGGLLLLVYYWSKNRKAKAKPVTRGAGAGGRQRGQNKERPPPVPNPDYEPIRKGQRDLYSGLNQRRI

B1: AC1476 aEpCAM-aCD3-BSRS1-XTEN_AE864-His(6), protease-untreated (uncleaved) anti-EpCAM×anti-CD3 ProTIA (bispecific antibody)
chain: DIQMTQSPSSLSASVGDRVTITCRSTKSLLHSNGITYLYWYQQKPGKAPKLLIYQMSNLASGVPSRFSSSGSGTDFTLTISSLQPEDFATYYCAQNLEIPRTFGQGTKVEIKGATPPETGAETESPGETTGGSAESEPPGEGQVQLVQSGPGLVQPGGSVRISCAASGYTFTNYGMNWVKQAPGKGLEWMGWINTYTGESTYADSFKGRFTFSLDTSASAAYLQINSLRAEDTAVYYCARFAIKGDYWGQGTLLTVSSGGGGSDIQMTQSPSSLSASVGDRVTITCRASQDIRNYLNWYQQKPGKAPKLLIYYTSRLESGVPSRFSGSGSGTDYTLTISSLQPEDFATYYCQQGNTLPWTFGQGTKVEIKGATPPETGAETESPGETTGGSAESEPPGEGEVQLVESGGGLVQPGGSLRLSCAASGYSFTGYTMNWVRQAPGKGLEWVALINPYKGVSTYNQKFKDRFTISVDKSKNTAYLQMNSLRAEDTAVYYCARSGYYGDSDWYFDVWGQGTLVTVSSGTAEAASASGLSGRSDNHSPLGLAGSPGSPAGSPTSTEEGTSESATPESGPGTSTEPSEGSAPGSPAGSPTSTEEGTSTEPSEGSAPGTSTEPSEGSAPGTSESATPESGPGSEPATSGSETPGSEPATSGSETPGSPAGSPTSTEEGTSESATPESGPGTSTEPSEGSAPGTSTEPSEGSAPGSPAGSPTSTEEGTSTEPSEGSAPGTSTEPSEGSAPGTSESATPESGPGTSTEPSEGSAPGTSESATPESGPGSEPATSGSETPGTSTEPSEGSAPGTSTEPSEGSAPGTSESATPESGPGTSESATPESGPGSPAGSPTSTEEGTSESATPESGPGSEPATSGSETPGTSESATPESGPGTSTEPSEGSAPGTSTEPSEGSAPGTSTEPSEGSAPGTSTEPSEGSAPGTSTEPSEGSAPGTSTEPSEGSAPGSPAGSPTSTEEGTSTEPSEGSAPGTSESATPESGPGSEPATSGSETPGTSESATPESGPGSEPATSGSETPGTSESATPESGPGTSTEPSEGSAPGTSESATPESGPGSPAGSPTSTEEGSPAGSPTSTEEGSPAGSPTSTEEGTSESATPESGPGTSTEPSEGSAPGTSESATPESGPGSEPATSGSETPGTSESATPESGPGSEPATSGSETPGTSESATPESGPGTSTEPSEGSAPGSPAGSPTSTEEGTSESATPESGPGSEPATSGSETPGTSESATPESGPGSPAGSPTSTEEGSPAGSPTSTEEGTSTEPSEGSAPGTSESATPESGPGTSESATPESGPGTSESATPESGPGSEPATSGSETPGSEPATSGSETPGSPAGSPTSTEEGTSTEPSEGSAPGTSTEPSEGSAPGSEPATSGSETPGTSESATPESGPGTSTEPSEGSAPGHHHHHH
notes: Single chain: anti-EpCAM scFv, anti-CD3 scFv, release segment BSRS-1, XTEN864, His6; also called ProTIA-X
- Kd [1]: 11.4 nM
- EC50, LDH release cytotoxicity, purified human CD3 positive T cells with OVCAR-3 cells 5:1 [2]: 0.0007 nM
- EC50, LDH release cytotoxicity, purified human CD3 positive T cells with SK-OV-3 cells 5:1 [2]: 0.134 nM
- EC50 [3]: 1.8 nM
- fold hindrance of binding by XTEN864 (against the cleaved and released anti-CD3scFv portion) [3]: 5.8 fold
- EC50 [4]: 0.28 nM
- fold hindrance of binding by XTEN864 (against the protease-treated ProTIA) [4]: ≥ 2.3 fold
- Kd [5]: 15.3 nM

B2: AC1693 protease-untreated anti-EpCAM×anti-CD3 ProTIA (bispecific antibody)
chain: DIQMTQSPSSLSASVGDRVTITCRSTKSLLHSNGITYLYWYQQKPGKAPKLLIYQMSNLASGVPSRFSSSGSGTDFTLTISSLQPEDFATYYCAQNLEIPRTFGQGTKVEIKGATPPETGAETESPGETTGGSAESEPPGEGQVQLVQSGPGLVQPGGSVRISCAASGYTFTNYGMNWVKQAPGKGLEWMGWINTYTGESTYADSFKGRFTFSLDTSASAAYLQINSLRAEDTAVYYCARFAIKGDYWGQGTLLTVSSGGGGSDIQMTQSPSSLSASVGDRVTITCRASQDIRNYLNWYQQKPGKAPKLLIYYTSRLESGVPSRFSGSGSGTDYTLTISSLQPEDFATYYCQQGNTLPWTFGQGTKVEIKGATPPETGAETESPGETTGGSAESEPPGEGEVQLVESGGGLVQPGGSLRLSCAASGYSFTGYTMNWVRQAPGKGLEWVALINPYKGVSTYNQKFKDRFTISVDKSKNTAYLQMNSLRAEDTAVYYCARSGYYGDSDWYFDVWGQGTLVTVSSGTAEAASASGESGRAANHTGAPPGGLTGPPGSPAGSPTSTEEGTSESATPESGPGTSTEPSEGSAPGSPAGSPTSTEEGTSTEPSEGSAPGTSTEPSEGSAPGTSESATPESGPGSEPATSGSETPGSEPATSGSETPGSPAGSPTSTEEGTSESATPESGPGTSTEPSEGSAPGTSTEPSEGSAPGSPAGSPTSTEEGTSTEPSEGSAPGTSTEPSEGSAPGTSESATPESGPGTSTEPSEGSAPGTSESATPESGPGSEPATSGSETPGTSTEPSEGSAPGTSTEPSEGSAPGTSESATPESGPGTSESATPESGPGSPAGSPTSTEEGTSESATPESGPGSEPATSGSETPGTSESATPESGPGTSTEPSEGSAPGTSTEPSEGSAPGTSTEPSEGSAPGTSTEPSEGSAPGTSTEPSEGSAPGTSTEPSEGSAPGSPAGSPTSTEEGTSTEPSEGSAPGTSESATPESGPGSEPATSGSETPGTSESATPESGPGSEPATSGSETPGTSESATPESGPGTSTEPSEGSAPGTSESATPESGPGSPAGSPTSTEEGSPAGSPTSTEEGSPAGSPTSTEEGTSESATPESGPGTSTEPSEGSAPGTSESATPESGPGSEPATSGSETPGTSESATPESGPGSEPATSGSETPGTSESATPESGPGTSTEPSEGSAPGSPAGSPTSTEEGTSESATPESGPGSEPATSGSETPGTSESATPESGPGSPAGSPTSTEEGSPAGSPTSTEEGTSTEPSEGSAPGTSESATPESGPGTSESATPESGPGTSESATPESGPGSEPATSGSETPGSEPATSGSETPGSPAGSPTSTEEGTSTEPSEGSAPGTSTEPSEGSAPGSEPATSGSETPGTSESATPESGPGTSTEPSEGSAPGHHHHHH
- EC50 [6]: 9 ng/mL
- fold more active binding than the non-cleavable AC1484 [6]: 3 fold
- EC50 (pM), caspase 3/7 cytotoxicity, PBMC with HCT-116 cells 10:1 [7]: 21 pM
- EC50 (pM), caspase 3/7 cytotoxicity, PBMC with HPAF-II cells 10:1 [7]: 12 pM
- EC50 (pM), caspase 3/7 cytotoxicity, PBMC with MDA-MB-231 cells 10:1 [7]: 3480 pM
